Laboratory results from article PMC4243247 (Nature Communications, 2014).

Tests used:
[1] = target: T1, N-terminally TAMRA-labelled ubiquitin (UniProt P0CG48 1-76, TAMRA on the N-terminus); experiment: fluorescence polarisation; stopped-flow, dissociation: USP4 constructs (12.5–250 nM) incubated with 2.5 nM TAMRA-ubiquitin 10–30 min, mixed with equal volume of 2.5 μM non-labelled ubiquitin; 20 °C; 20 mM HEPES pH 7.5, 150 mM NaCl, 5 mM DTT, 0.05% Tween 20; global fit to a two-phase decay (k_slow, k_fast); details: both partners purified
T1 construct: ubiquitin, the cut product of the ubiquitin precursors; also called TAMRAUb; TAMRA-Ubiquitin

[2] = target: T1, N-terminally TAMRA-labelled ubiquitin; experiment: fluorescence polarisation; equilibrium: different concentrations of USP4 with 2.5 nM TAMRA-ubiquitin; same setup as the Ub–Rhod assays (25 °C, 20 mM HEPES pH 7.5, 150 mM NaCl, 5 mM DTT, 0.05% Tween 20); one-site binding model accounting for ligand depletion; details: both partners purified
[3] = target: T1, N-terminally TAMRA-labelled ubiquitin; experiment: fluorescence polarisation; stopped-flow, association: equal volumes of USP4 (100–1,000 nM) and TAMRA-ubiquitin rapidly mixed; 20 °C; 20 mM HEPES pH 7.5, 150 mM NaCl, 5 mM DTT, 0.05% Tween 20; single exponential, kon as slope of Kobs against USP4 concentration; details: both partners purified
[4] = target: T2, USP4 catalytic domain (USP4 CD, residues 296–925) (human, UniProt Q13107 296-925); experiment: cell-based or functional assay
T2 sequence (looked up): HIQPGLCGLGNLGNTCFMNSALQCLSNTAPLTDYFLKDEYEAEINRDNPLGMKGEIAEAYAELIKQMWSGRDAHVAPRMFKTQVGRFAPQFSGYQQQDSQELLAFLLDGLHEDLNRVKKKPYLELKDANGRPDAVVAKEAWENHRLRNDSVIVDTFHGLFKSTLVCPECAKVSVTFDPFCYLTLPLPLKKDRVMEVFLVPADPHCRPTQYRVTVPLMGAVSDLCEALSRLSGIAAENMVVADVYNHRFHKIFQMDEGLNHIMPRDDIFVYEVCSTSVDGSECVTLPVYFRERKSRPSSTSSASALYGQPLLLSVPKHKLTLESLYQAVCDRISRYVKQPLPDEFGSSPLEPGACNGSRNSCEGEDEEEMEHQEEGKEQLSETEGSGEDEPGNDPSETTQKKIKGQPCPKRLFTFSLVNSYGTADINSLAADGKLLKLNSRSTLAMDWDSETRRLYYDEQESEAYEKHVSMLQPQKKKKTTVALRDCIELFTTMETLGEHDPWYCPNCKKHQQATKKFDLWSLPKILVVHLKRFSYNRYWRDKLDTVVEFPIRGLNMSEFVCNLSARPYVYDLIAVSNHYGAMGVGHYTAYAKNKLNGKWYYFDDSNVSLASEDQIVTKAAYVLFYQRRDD

[5] = target: T3, USP4 CD (residues 296–925), biotinylated on lysines (human, UniProt Q13107 296-925, biotin on lysines (half molar amounts of EZ-Link Sulfo-NHS-LC-LC-biotin)); experiment: SPR; Biacore T100, 25 °C; ~100 RU of biotinylated USP4 construct on SA chip; DUSP–Ubl concentration series flowed at 30 μl/min in 20 mM HEPES pH 7.5, 150 mM NaCl, 5 mM DTT, 0.05% Tween 20 with NSB reducer; apparent KD from EvilFit after removing the slow nonspecific off-rate component; details: both partners purified
T3 construct: USP4, human, catalytic domain with the insert, residues 296-925; same construct as m2, biotinylated for capture on the SA sensor chip; also called immobilized USP4 CD; biotinylated USP4; source: E. coli BL21(DE3), purified, then biotinylated
T3 sequence (looked up): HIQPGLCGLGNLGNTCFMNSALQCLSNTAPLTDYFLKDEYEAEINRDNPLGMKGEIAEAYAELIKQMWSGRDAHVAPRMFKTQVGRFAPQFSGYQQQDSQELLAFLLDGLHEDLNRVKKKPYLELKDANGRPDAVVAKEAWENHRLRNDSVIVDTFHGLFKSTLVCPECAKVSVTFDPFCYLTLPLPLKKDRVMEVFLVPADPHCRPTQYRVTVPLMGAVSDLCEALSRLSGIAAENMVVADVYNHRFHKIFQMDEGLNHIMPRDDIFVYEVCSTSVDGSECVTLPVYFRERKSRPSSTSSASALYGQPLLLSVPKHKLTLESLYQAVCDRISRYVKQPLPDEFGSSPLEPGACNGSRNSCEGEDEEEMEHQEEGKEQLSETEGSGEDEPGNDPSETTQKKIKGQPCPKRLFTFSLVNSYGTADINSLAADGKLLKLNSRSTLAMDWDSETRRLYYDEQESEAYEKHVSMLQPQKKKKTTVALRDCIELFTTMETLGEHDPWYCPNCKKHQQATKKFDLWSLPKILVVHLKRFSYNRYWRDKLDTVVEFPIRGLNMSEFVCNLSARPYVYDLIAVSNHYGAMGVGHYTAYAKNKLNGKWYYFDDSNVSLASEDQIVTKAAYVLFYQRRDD

[6] = target: T4, USP4 insert (residues 483–765), biotinylated on lysines (human, UniProt Q13107 483-765, biotin on lysines (half molar amounts of EZ-Link Sulfo-NHS-LC-LC-biotin)); experiment: as above; details: both partners purified
T4 construct: USP4, human, the domain inserted within the catalytic core (carries a Ubl domain), residues 483-765; source: E. coli BL21(DE3), purified, then biotinylated
T4 sequence (looked up): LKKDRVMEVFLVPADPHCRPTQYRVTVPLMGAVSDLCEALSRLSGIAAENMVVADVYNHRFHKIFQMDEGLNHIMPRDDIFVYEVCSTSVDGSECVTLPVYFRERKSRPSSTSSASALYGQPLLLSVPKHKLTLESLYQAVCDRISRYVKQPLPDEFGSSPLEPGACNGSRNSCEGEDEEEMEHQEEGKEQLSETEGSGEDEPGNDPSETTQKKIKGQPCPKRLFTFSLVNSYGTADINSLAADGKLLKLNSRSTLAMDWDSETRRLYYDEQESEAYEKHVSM

B1: USP4 FL F386G (enzyme, human, UniProt Q13107 8-925, looked up)
chain: RERPDAETQKSELGPLMRTTLQRGAQWYLIDSRWFKQWKKYVGFDSWDMYNVGEHNLFPGPIDNSGLFSDPESQTLKEHLIDELDYVLVPTEAWNKLLNWYGCVEGQQPIVRKVVEHGLFVKHCKVEVYLLELKLCENSDPTNVLSCHFSKADTIATIEKEMRKLFNIPAERETRLWNKYMSNTYEQLSKLDNTVQDAGLYQGQVLVIEPQNEDGTWPRQTLQSKSSTAPSRNFTTSPKSSASPYSSVSASLIANGDSTSTCGMHSSGVSRGGSGFSASYNCQEPPSSHIQPGLCGLGNLGNTCFMNSALQCLSNTAPLTDYFLKDEYEAEINRDNPLGMKGEIAEAYAELIKQMWSGRDAHVAPRMFKTQVGRFAPQGSGYQQQDSQELLAFLLDGLHEDLNRVKKKPYLELKDANGRPDAVVAKEAWENHRLRNDSVIVDTFHGLFKSTLVCPECAKVSVTFDPFCYLTLPLPLKKDRVMEVFLVPADPHCRPTQYRVTVPLMGAVSDLCEALSRLSGIAAENMVVADVYNHRFHKIFQMDEGLNHIMPRDDIFVYEVCSTSVDGSECVTLPVYFRERKSRPSSTSSASALYGQPLLLSVPKHKLTLESLYQAVCDRISRYVKQPLPDEFGSSPLEPGACNGSRNSCEGEDEEEMEHQEEGKEQLSETEGSGEDEPGNDPSETTQKKIKGQPCPKRLFTFSLVNSYGTADINSLAADGKLLKLNSRSTLAMDWDSETRRLYYDEQESEAYEKHVSMLQPQKKKKTTVALRDCIELFTTMETLGEHDPWYCPNCKKHQQATKKFDLWSLPKILVVHLKRFSYNRYWRDKLDTVVEFPIRGLNMSEFVCNLSARPYVYDLIAVSNHYGAMGVGHYTAYAKNKLNGKWYYFDDSNVSLASEDQIVTKAAYVLFYQRRDD
notes: USP4, human, residues 8-925, switching loop mutant F386G; made with the QuickChange mutagenesis kit
What does the source list for B1?
k_fast (dissociation, fast component) [1]: 0.26 ± 0.01 s⁻¹; k_slow (dissociation, slow component) [1]: 0.024 ± 0.002 s⁻¹

B2: USP4 CD F386G (domain or fragment, human, UniProt Q13107 296-925, looked up)
chain: HIQPGLCGLGNLGNTCFMNSALQCLSNTAPLTDYFLKDEYEAEINRDNPLGMKGEIAEAYAELIKQMWSGRDAHVAPRMFKTQVGRFAPQGSGYQQQDSQELLAFLLDGLHEDLNRVKKKPYLELKDANGRPDAVVAKEAWENHRLRNDSVIVDTFHGLFKSTLVCPECAKVSVTFDPFCYLTLPLPLKKDRVMEVFLVPADPHCRPTQYRVTVPLMGAVSDLCEALSRLSGIAAENMVVADVYNHRFHKIFQMDEGLNHIMPRDDIFVYEVCSTSVDGSECVTLPVYFRERKSRPSSTSSASALYGQPLLLSVPKHKLTLESLYQAVCDRISRYVKQPLPDEFGSSPLEPGACNGSRNSCEGEDEEEMEHQEEGKEQLSETEGSGEDEPGNDPSETTQKKIKGQPCPKRLFTFSLVNSYGTADINSLAADGKLLKLNSRSTLAMDWDSETRRLYYDEQESEAYEKHVSMLQPQKKKKTTVALRDCIELFTTMETLGEHDPWYCPNCKKHQQATKKFDLWSLPKILVVHLKRFSYNRYWRDKLDTVVEFPIRGLNMSEFVCNLSARPYVYDLIAVSNHYGAMGVGHYTAYAKNKLNGKWYYFDDSNVSLASEDQIVTKAAYVLFYQRRDD
notes: USP4, human, catalytic domain residues 296-925, switching loop mutant F386G; made with the QuickChange mutagenesis kit
What does the source list for B2?
Kd [2]: ~1 µM; kon [3]: 35000 ± 7000 M⁻¹ s⁻¹; k_fast (dissociation, fast component) [1]: 0.12 ± 0.016 s⁻¹; k_slow (dissociation, slow component) [1]: 0.015 ± 0.0006 s⁻¹

B3: USP4 DUSP–Ubl domain (residues 8–228) (domain or fragment, human, UniProt Q13107 8-228, looked up)
chain: RERPDAETQKSELGPLMRTTLQRGAQWYLIDSRWFKQWKKYVGFDSWDMYNVGEHNLFPGPIDNSGLFSDPESQTLKEHLIDELDYVLVPTEAWNKLLNWYGCVEGQQPIVRKVVEHGLFVKHCKVEVYLLELKLCENSDPTNVLSCHFSKADTIATIEKEMRKLFNIPAERETRLWNKYMSNTYEQLSKLDNTVQDAGLYQGQVLVIEPQNEDGTWPRQT
notes: USP4, human, N-terminal tandem DUSP–Ubl domain, residues 8-228
How did the “Ub–Rhod catalytic rate of USP4 CD (50 nM, 5 μM substrate) with DUSP–Ubl added in trans at different concentrations up to 150 μM” value [4] turn out when B3 was run?
Its value is ~9 fold.

What about the Kd [5] of the same binder?
The Kd was ~100 µM.

What about the Kd [6] of the same binder?
Its Kd is ~44 µM.

B4: USP4 DUSP–Ubl Y136A (domain or fragment, human, UniProt Q13107 8-228, looked up)
chain: RERPDAETQKSELGPLMRTTLQRGAQWYLIDSRWFKQWKKYVGFDSWDMYNVGEHNLFPGPIDNSGLFSDPESQTLKEHLIDELDYVLVPTEAWNKLLNWYGCVEGQQPIVRKVVEHGLFVKHCKVEVALLELKLCENSDPTNVLSCHFSKADTIATIEKEMRKLFNIPAERETRLWNKYMSNTYEQLSKLDNTVQDAGLYQGQVLVIEPQNEDGTWPRQT
notes: USP4, human, DUSP–Ubl domain residues 8-228 with Y136A at the interface of the DUSP and Ubl domains; also called mutant DUSP–Ubl
Does B4 bind [5]?
Result: binds

Does B4 bind [6]?
Result: binds
